Experimental data as given in article PMC8224933, “Plasticity of seven-transmembrane-helix receptor heteromers in human vascular smooth muscle cells” (PLoS ONE, 2021).

T1: α1D-adrenoceptor (human (endogenous in hVSMCs), UniProt P25100 1-572)
T1 construct: α1D-adrenoceptor, endogenous in human vascular smooth muscle cells; also called α1D-AR; source: endogenous, hVSMCs (primary aortic smooth muscle cells, ATCC PCS-100-012), fixed cells
T1 sequence (looked up): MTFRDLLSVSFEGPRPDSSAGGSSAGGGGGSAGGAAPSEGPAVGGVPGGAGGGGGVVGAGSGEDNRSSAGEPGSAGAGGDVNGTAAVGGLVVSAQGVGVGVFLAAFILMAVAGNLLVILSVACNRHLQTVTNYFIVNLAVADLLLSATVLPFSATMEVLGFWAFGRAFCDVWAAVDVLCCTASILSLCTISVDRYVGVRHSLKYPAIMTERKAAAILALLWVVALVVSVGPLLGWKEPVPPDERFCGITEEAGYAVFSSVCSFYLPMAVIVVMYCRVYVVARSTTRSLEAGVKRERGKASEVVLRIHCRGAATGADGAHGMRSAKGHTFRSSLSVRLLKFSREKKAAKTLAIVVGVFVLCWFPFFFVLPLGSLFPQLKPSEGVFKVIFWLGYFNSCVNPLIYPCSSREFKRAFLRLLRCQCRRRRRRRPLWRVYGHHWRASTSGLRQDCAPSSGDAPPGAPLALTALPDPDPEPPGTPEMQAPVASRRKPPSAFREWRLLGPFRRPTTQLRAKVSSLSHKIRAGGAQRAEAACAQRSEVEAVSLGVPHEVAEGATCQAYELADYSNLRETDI

B1: α1A-adrenoceptor (receptor, human (endogenous in hVSMCs), UniProt P35348 1-466, looked up)
chain: MVFLSGNASDSSNCTQPPAPVNISKAILLGVILGGLILFGVLGNILVILSVACHRHLHSVTHYYIVNLAVADLLLTSTVLPFSAIFEVLGYWAFGRVFCNIWAAVDVLCCTASIMGLCIISIDRYIGVSYPLRYPTIVTQRRGLMALLCVWALSLVISIGPLFGWRQPAPEDETICQINEEPGYVLFSALGSFYLPLAIILVMYCRVYVVAKRESRGLKSGLKTDKSDSEQVTLRIHRKNAPAGGSGMASAKTKTHFSVRLLKFSREKKAAKTLGIVVGCFVLCWLPFFLVMPIGSFFPDFKPSETVFKIVFWLGYLNSCINPIIYPCSSQEFKKAFQNVLRIQCLCRKQSSKHALGYTLHPPSQAVEGQHKDMVRIPVGSRETFYRISKTDGVCEWKFFSSMPRGSARITVSKDQSSCTTARVRSKSFLQVCCCVGPSTPSLDKNHQVPTIKVHTISLSENGEEV
notes: α1A-adrenoceptor, endogenous in human vascular smooth muscle cells; also called α1A-AR; source: endogenous, hVSMCs (primary aortic smooth muscle cells, ATCC PCS-100-012), fixed cells
B2: α1B-adrenoceptor (receptor, human (endogenous in hVSMCs), UniProt P35368 1-520, looked up)
chain: MNPDLDTGHNTSAPAHWGELKNANFTGPNQTSSNSTLPQLDITRAISVGLVLGAFILFAIVGNILVILSVACNRHLRTPTNYFIVNLAMADLLLSFTVLPFSAALEVLGYWVLGRIFCDIWAAVDVLCCTASILSLCAISIDRYIGVRYSLQYPTLVTRRKAILALLSVWVLSTVISIGPLLGWKEPAPNDDKECGVTEEPFYALFSSLGSFYIPLAVILVMYCRVYIVAKRTTKNLEAGVMKEMSNSKELTLRIHSKNFHEDTLSSTKAKGHNPRSSIAVKLFKFSREKKAAKTLGIVVGMFILCWLPFFIALPLGSLFSTLKPPDAVFKVVFWLGYFNSCLNPIIYPCSSKEFKRAFVRILGCQCRGRGRRRRRRRRRLGGCAYTYRPWTRGGSLERSQSRKDSLDDSGSCLSGSQRTLPSASPSPGYLGRGAPPPVELCAFPEWKAPGALLSLPAPEPPGRRGRHDSGPLFTFKLLTEPESPGTDGGASNGGCEAAADVANGQPGFKSNMPLAPGQF
notes: α1B-adrenoceptor, endogenous in human vascular smooth muscle cells; also called α1B-AR; source: endogenous, hVSMCs (primary aortic smooth muscle cells, ATCC PCS-100-012), fixed cells
B3: chemokine (C-X-C motif) receptor 4 (receptor, human (endogenous in hVSMCs), UniProt P61073 1-352, looked up)
chain: MEGISIYTSDNYTEEMGSGDYDSMKEPCFREENANFNKIFLPTIYSIIFLTGIVGNGLVILVMGYQKKLRSMTDKYRLHLSVADLLFVITLPFWAVDAVANWYFGNFLCKAVHVIYTVNLYSSVLILAFISLDRYLAIVHATNSQRPRKLLAEKVVYVGVWIPALLLTIPDFIFANVSEADDRYICDRFYPNDLWVVVFQFQHIMVGLILPGIVILSCYCIIISKLSHSKGHQKRKALKTTVILILAFFACWLPYYIGISIDSFILLEIIKQGCEFENTVHKWISITEALAFFHCCLNPILYAFLGAKFKTSAQHALTSVSRGSSLKILSKGKRGGHSSVSTESESSSFHSS
notes: chemokine (C-X-C motif) receptor 4 (CXCR4), endogenous in human vascular smooth muscle cells; also called CXCR4; source: endogenous, hVSMCs (primary aortic smooth muscle cells, ATCC PCS-100-012), fixed cells

Experiments:
Experiment in all cases: proximity ligation; Duolink II PLA on hVSMCs fixed with 4% paraformaldehyde; two primary antibodies from differing species (1:500, 37°C, 105 min); control: omission of one primary antibody; PLA signals per cell counted; cells untreated or incubated 72 h with non-targeting, CXCR4, ACKR3 or AVPR1A siRNA
Conditions in all cases: partners not purified
α1B-adrenoceptor = target: B2
α1D-adrenoceptor = target: T1, α1D-adrenoceptor
α1A-adrenoceptor = target: B1

| PLA signals after AVPR1A siRNA, % of NT siRNA (α1B-adrenoceptor) [%] | PLA signals after AVPR1A siRNA, % of NT siRNA (α1D-adrenoceptor) [%] | PLA signals after AVPR1A siRNA, % of NT siRNA (α1A-adrenoceptor) [%] | Binder |
| --- | --- | --- | --- |
| 101 |  |  | B1 |
|  | 141 |  | B2 |
| 72 |  | 91 | B3 |
